Source: publication PMC11197762 (Fundamental Research, 2022)

Biological target: GST-p53, full-length, wild-type (human, UniProt P04637 1-393)
Experiment: pull-down

GST-p53, full-length, wild-type, sequence (P04637 whole entry): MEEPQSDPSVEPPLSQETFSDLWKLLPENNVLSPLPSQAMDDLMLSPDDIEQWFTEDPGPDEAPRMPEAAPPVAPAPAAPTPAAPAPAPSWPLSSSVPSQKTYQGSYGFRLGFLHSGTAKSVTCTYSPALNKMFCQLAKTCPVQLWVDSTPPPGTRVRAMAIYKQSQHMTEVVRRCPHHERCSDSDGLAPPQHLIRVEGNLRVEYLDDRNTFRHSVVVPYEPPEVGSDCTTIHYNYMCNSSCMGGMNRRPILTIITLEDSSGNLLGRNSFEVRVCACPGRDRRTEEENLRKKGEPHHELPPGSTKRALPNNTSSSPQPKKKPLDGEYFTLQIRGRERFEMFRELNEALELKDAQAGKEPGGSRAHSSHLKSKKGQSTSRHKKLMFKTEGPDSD

binding result: binds
B1: BRD4 basic residue-enriched interaction domain (BID, aa 524-579), purified (domain or fragment)
chain: QLAALSQPQQNKPKKKEKDKKEKKKEKHKRKEEVEENKKSKAKEPPPKKTKKNNSS
